{"source": "paper PMC10439114", "binders": {"B1": {"name": "TIGIT-SNAP (wild-type TIGIT with a C-terminal SNAP-tag, on Jurkat cells) (receptor)", "chain": "MMTGTIETTGNISAEKGGSIILQCHLSSTTAQVTQVNWEQQDQLLAICNADLGWHISPSFKDRVAPGPGLGLTLQSLTVNDTGEYFCIYHTYPDGTYTGRIFLEVLESSVAEHGARFQIPLLGAMAATLVVICTAVIVVVALTRKKKALRIHSVEGDLRRKSAGQEEWSPSAPSPPGSCVQAEAAPAGLCGEQRGEDCAELHDYFNVLSYRSLGNCSFFTETG"}}, "target": "T1, CD155 with a C-terminal V5 epitope tag, on Raji cells (UniProt P15151)", "T1 sequence": "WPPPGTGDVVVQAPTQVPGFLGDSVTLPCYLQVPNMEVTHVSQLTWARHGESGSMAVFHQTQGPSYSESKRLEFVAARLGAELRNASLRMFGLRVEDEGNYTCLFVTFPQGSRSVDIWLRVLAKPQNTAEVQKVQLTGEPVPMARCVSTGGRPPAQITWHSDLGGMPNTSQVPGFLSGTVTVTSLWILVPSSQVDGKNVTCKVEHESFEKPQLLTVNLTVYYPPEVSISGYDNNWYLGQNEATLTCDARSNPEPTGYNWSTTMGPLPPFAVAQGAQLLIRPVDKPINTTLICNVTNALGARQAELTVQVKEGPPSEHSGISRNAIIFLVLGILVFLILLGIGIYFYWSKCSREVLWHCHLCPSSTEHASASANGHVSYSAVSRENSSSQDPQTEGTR", "data": [{"binder": "B1", "values": [{"measurement": "IL-2 release of Jurkat TIGIT-SNAP cells after 6 h with SEE-pulsed Raji-CD155 relative to Raji-CD111 co-cultures (ELISA)", "result": 37, "unit": "%"}, {"measurement": "log2-fold decrease of IL-2 release of Jurkat TIGIT-SNAP cells with SEE-pulsed Raji-CD155 against Raji-CD111 (ELISA)", "result": 1.45, "unit": "log2 fold"}]}]}
